Measurements published in paper PMC10783091, “Higher affinities of fibers with cell receptors increase the infection capacity and virulence of human adenovirus type 7 and type 55 compared to type 3” (Microbiology Spectrum, 2023).

Legend:
[1] = molecular target: recombinant human desmoglein 2 (DSG2) (human) (UniProt Q14126); experiment: SPR; DSG2 amine-coupled on a CM5 chip (3,500-3,700 RU), knobs as analytes; 25°C; HBS-EP (10 mM HEPES, 150 mM NaCl, 3 mM EDTA, 0.05% Tween 20, pH 7.4); association 180 s, dissociation 540 s, 30 µL/min; Biacore 8K
[2] = molecular target: Recombinant fiber knob of HAdV-7 (human adenovirus type 7) (UniProt P15141); experiment: SDS-PAGE of unboiled (native) against boiled samples; purified knobs in loading buffer kept on ice (native) or heated at 98°C for 5 min (boiled); 12% SDS-PAGE
[3] = molecular target: Recombinant fiber knob of HAdV-55 (human adenovirus type 55); experiment: as above
[4] = molecular target: T1, recombinant human desmoglein 2 (DSG2) (human, UniProt Q14126 50-609); experiment: SPR; DSG2 amine-coupled on a CM5 chip (3,500-3,700 RU), knobs as analytes; 25°C; HBS-EP (10 mM HEPES, 150 mM NaCl, 3 mM EDTA, 0.05% Tween 20, pH 7.4); association 180 s, dissociation 540 s, 30 µL/min; Biacore 8K; conditions: both partners purified
T1 construct: desmoglein 2, human, recombinant; No catalogue number, limits or tags are printed for the bought protein; The source is named for the SPR; the ELISA says only 'human DSG2'; also called human DSG2; receptor DSG2; source: bought: Creative Biomart
T1 sequence: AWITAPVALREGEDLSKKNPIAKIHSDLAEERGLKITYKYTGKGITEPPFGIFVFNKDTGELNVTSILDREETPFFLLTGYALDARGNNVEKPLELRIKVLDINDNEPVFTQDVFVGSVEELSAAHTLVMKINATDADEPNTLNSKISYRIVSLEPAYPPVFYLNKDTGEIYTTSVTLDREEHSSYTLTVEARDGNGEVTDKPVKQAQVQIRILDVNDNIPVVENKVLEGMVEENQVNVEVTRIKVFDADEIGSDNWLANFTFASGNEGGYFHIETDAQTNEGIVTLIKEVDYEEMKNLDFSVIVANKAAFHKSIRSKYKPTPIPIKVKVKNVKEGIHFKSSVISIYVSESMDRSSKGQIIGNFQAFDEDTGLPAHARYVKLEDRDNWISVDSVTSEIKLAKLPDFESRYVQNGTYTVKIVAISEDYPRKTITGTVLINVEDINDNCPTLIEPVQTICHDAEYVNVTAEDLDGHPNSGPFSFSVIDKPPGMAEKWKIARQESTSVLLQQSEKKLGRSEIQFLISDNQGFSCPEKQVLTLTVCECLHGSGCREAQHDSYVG

[5] = molecular target: the molecule itself; experiment: SDS-PAGE of unboiled (native) against boiled samples; purified knobs in loading buffer kept on ice (native) or heated at 98°C for 5 min (boiled); 12% SDS-PAGE

Question: “Recombinant fiber knob of HAdV-7 (from UniProt P15141 1-343) (domain or fragment)” was tested. Which Kd [1] did it give?
Answer: 2.21 nM

Question: What about the stoichiometry N [2] of the same molecule?
Answer: 3

Question: What does the source list for “Recombinant fiber knob of HAdV-55 (domain or fragment)”?
Answer: Kd [1]: 1.25 nM; stoichiometry N [3]: 3

B1: Recombinant fiber knob of HAdV-3 (domain or fragment)
chain: KLGNGLTFDSSNSIALKNNTLWTGPKPEANCIIEYGKQNPDSKLTLILVKNGGIVNGYVTLMGASDYVNTLFKNKNVSINVELYFDATGHILPDSSSLKTDLELKYKQTADFSARGFMPSTTAYPFVLPNAGTHNENYIFGQCYYKASDGALFPLEVTVMLNKRLPDSRTSYVMTFLWSLNAGLAPETTQATLITSPFTFSYIREDD
notes: fiber protein of human adenovirus type 3, fiber knob with the last shaft repeat; also called Ad3K; Ad3k; not shown: His tag, N-terminal, kept
Question: B1 was tested. Which Kd [4] did it give?
Answer: 6.7 nM

B2: Recombinant fiber knob of HAdV-5 (domain or fragment)
chain: GAITVGNKNNDKLTLWTTPAPSPNCRLNAEKDAKLTLVLTKCGSQILATVSVLAVKGSLAPISGTVQSAHLIIRFDENGVLLNNSFLDPEYWNFRNGDLTEGTAYTNAVGFMPNLSAYPKSHGKTAKSNIVSQVYLNGDKTKPVTLTITLNGTQETGDTTPSAYSMSFSWDWSGHNYINEIFATSSYTFSYIAQE
notes: fiber protein of human adenovirus type 5, fiber knob with the last shaft repeat; Negative control knob; also called Ad5K; Ad5k; not shown: His tag, N-terminal, kept
Question: With B2 as the molecule, how does the “stoichiometry N” value [5] read?
Answer: 3
